Here are results for 27 sequences from the Immune Epitope Database (IEDB).

The target of one experiment is HLA-B*58:01. Nature of the experiment: IEDB peptide-MHC binding, purified MHC/direct/fluorescence; filed as Kd, often an IC50 or EC50 that approximates it; ≥ and ≤ were set here for values at or beyond the usual limits of such assays.
Another experiment deals with HLA-B*57:01. The experiment is described as above. The following applies: source organism: Giardia lamblia ATCC 50803.
Experiment [1] addresses HLA-A*02:01. Nature of the experiment: IEDB peptide-MHC binding, purified MHC/competitive/fluorescence; ≥ and ≤ were set here for values at or beyond the usual limits of such assays.
A further experiment has as its target HLA-A*24:02. The description is as above.
The target in another experiment is HLA-B*51:01. The experiment in a line: IEDB peptide-MHC binding, purified MHC/competitive/radioactivity; filed as Kd, often an IC50 or EC50 that approximates it; ≥ and ≤ were set here for values at or beyond the usual limits of such assays.
The target in another experiment is HLA-A*02:06. Described as above.
The target of another experiment is HLA-A*68:02. The description is as above.
Experiment [2] deals with HLA-A*26:01. Described as above.
The target of another experiment is HLA-B*18:01. Nature of the experiment: IEDB peptide-MHC binding, purified MHC/direct/fluorescence; filed as Kd, often an IC50 or EC50 that approximates it; ≥ and ≤ were set here for values at or beyond the usual limits of such assays.
For the next experiment, the target named is HLA-A*69:01. Described as above.
The next experiment deals with HLA-B*40:01. Described as above.
The target in another experiment is HLA-A*11:01. Described as above.
Experiment [3] addresses HLA-A*26:01. The description is as above.
A further experiment concerns the target HLA-B*15:01. The description is as above.
Another experiment addresses HLA-A*03:01. The experiment is described as above.
In experiment [4] the target is HLA-A*02:01. The description is as above.
Experiment [5] deals with HLA-B*08:01. The description is as above.
The next experiment deals with HLA-B*07:02. The experiment is described as above.
The next experiment addresses HLA-A*01:01. Described as above.
The next experiment has as its target HLA-B*27:05. The description is as above.
The target of the next experiment is HLA-A*31:01. Described as above.
Another experiment has as its target HLA-A*02:02. The experiment in a line: IEDB peptide-MHC binding, purified MHC/competitive/radioactivity; filed as Kd, often an IC50 or EC50 that approximates it; ≥ and ≤ were set here for values at or beyond the usual limits of such assays. The note with it: source organism: Lassa virus Josiah.
Another experiment addresses HLA-A*02:03. Described as above. The following applies: source organism: Lassa virus Josiah.
Experiment [6] deals with HLA-B*08:01. The description is as above. The following applies: source organism: Dengue virus 2 Jamaica/1409/1983.
A further experiment concerns the target HLA-B*44:02. The experiment in a line: IEDB peptide-MHC binding, purified MHC/direct/fluorescence; filed as Kd, often an IC50 or EC50 that approximates it; ≥ and ≤ were set here for values at or beyond the usual limits of such assays.
The mark [7] stands for this setting: source organism: Zaire ebolavirus.
Where [8] appears, read: source organism: Dengue virus 2 Jamaica/1409/1983.
[9] abbreviates: source organism: Dengue virus 3 Martinique/1243/1999.
Where [10] appears, read: source organism: Dengue virus 4 Philippines/H241/1956.
Where [11] appears, read: source organism: Dengue virus 1 Brazil/97-11/1997.
[12] abbreviates: source organism: Pseudomonas aeruginosa UCBPP-PA14.
Where [13] appears, read: source organism: Sudan ebolavirus.
The mark [14] stands for this setting: source organism: Lassa virus Josiah.
Setting [15] is: source organism: Escherichia coli O157:H7.
Setting [16] is: source organism: Influenza A virus (A/Duck/Shantou/2144/00(H9N2)).

For PTAPSDGGM, the Kd with HLA-B*58:01 (source organism: Giardia lamblia ATCC 50803) was 9 µM; in the experiment with HLA-B*57:01 it was no less than 20 µM.
IIQAFEAGV showed a concentration for half-maximal inhibition (IC50) with HLA-A*02:01 [1] (setting [7]) of 2.47 µM.
Regarding YRSGTETKI, the IC50 in the experiment with HLA-A*24:02 (source organism: Vaccinia virus Copenhagen) was no less than 315 µM.
The sequence DTTIGEWAF came in with an IC50 with HLA-A*24:02 (setting [7]) of 25.5 µM.
KPWDVVPMV: the equilibrium dissociation constant (Kd) with HLA-B*51:01 (setting [8]) came to 1.44 µM.
On to LPLPWTSGAT, for which the dissociation constant Kd with HLA-B*51:01 (setting [9]) was no less than 21.4 µM.
DLKDQIAQL: the dissociation constant (Kd) in the experiment with HLA-A*02:06 (source organism: Homo sapiens) is no less than 78.7 µM; in the experiment with HLA-A*68:02 (source organism: Homo sapiens) it was 0.826 µM.
With WTMKILIGVI, the Kd with HLA-A*68:02 (setting [8]) came to 0.184 µM.
The same measure, in the same setting: the figure for ETWMSSEGA is 0.00286 µM.
Consider NPHLPEKKI, for which the equilibrium dissociation constant (Kd) with HLA-B*51:01 (setting [9]) is no less than 28.8 µM.
In the case of LVMLLVHYA, the dissociation constant Kd with HLA-A*68:02 (setting [10]) was 0.369 µM.
Turning to HTIENTTANI, the dissociation constant Kd turned out to be 2.07 µM with HLA-A*26:01 [2] (setting [11]) and 0.00175 µM in the experiment with HLA-A*68:02 (setting [11]).
As to VEAGLIDTY, the Kd in the experiment with HLA-B*18:01 (source organism: Vibrio vulnificus YJ016) was no less than 20 µM.
Take GLGGDASAY: the Kd with HLA-A*69:01 (setting [12]) was no less than 20 µM; in the experiment with HLA-B*40:01 (setting [12]) it was no less than 20 µM; in the experiment with HLA-A*11:01 (setting [12]) it was no less than 20 µM; in the experiment with HLA-B*58:01 (setting [12]) it was no less than 20 µM; in the experiment with HLA-A*26:01 [3] (setting [12]) it was no less than 20 µM; with HLA-B*15:01 (source organism: Pseudomonas aeruginosa), 0.3 µM. Besides, the Kd with HLA-A*03:01 (setting [12]), with HLA-A*02:01 [4] (setting [12]), in the experiment with HLA-B*08:01 [5] (setting [12]), in the experiment with HLA-B*07:02 (setting [12]), in the experiment with HLA-A*01:01 (setting [12]) and with HLA-B*27:05 (setting [12]) was no less than 20 µM each time. The same sequence registered a dissociation constant (Kd) with HLA-A*31:01 (setting [12]) of no less than 20 µM.
On to ELCAEAEEL, for which the Kd in the experiment with HLA-A*68:02 (source organism: Homo sapiens) amounted to 1.06 µM.
As for TQETITETA, the IC50 with HLA-A*02:01 [1] (setting [13]) was no less than 184 µM.
As to ELTCLNEASV, the Kd with HLA-A*68:02 (source organism: Homo sapiens) is 0.0688 µM.
Regarding ALMDCIMFDA, the dissociation constant (Kd) in the experiment with HLA-A*02:02 was 0.00525 µM; in the experiment with HLA-A*02:03 it was 0.00962 µM; in the experiment with HLA-A*02:06 (setting [14]), 0.0336 µM; with HLA-A*68:02 (setting [14]) it was no less than 5 µM.
Take VAFLRFLTI: the equilibrium dissociation constant (Kd) with HLA-B*51:01 (setting [8]) stood at 0.00189 µM; in the experiment with HLA-B*08:01 [6] it was 0.0104 µM.
In the experiment with HLA-A*24:02 (setting [13]), NADIGEWAF displayed an IC50 of 55.5 µM.
Consider MAVLFVVTLI, for which the equilibrium dissociation constant (Kd) with HLA-A*68:02 (setting [10]) was determined as 0.533 µM.
Take RFDEAIINY: the Kd was no less than 20 µM with HLA-A*69:01 (setting [15]); no less than 10 µM in the experiment with HLA-B*40:01 (setting [15]); no less than 20 µM in the experiment with HLA-A*11:01 (setting [15]); no less than 20 µM in the experiment with HLA-B*58:01 (setting [15]); no less than 20 µM with HLA-A*26:01 [3] (setting [15]); no less than 20 µM in the experiment with HLA-B*15:01 (setting [15]). The Kd in the experiment with HLA-A*03:01 (setting [15]), in the experiment with HLA-A*02:01 [4] (setting [15]), with HLA-B*08:01 [5] (setting [15]), with HLA-B*07:02 (setting [15]), with HLA-A*01:01 (setting [15]) and with HLA-B*44:02 (setting [15]) was no less than 20 µM in each case. Besides, the Kd with HLA-B*27:05 (setting [15]) and with HLA-A*31:01 (setting [15]) was no less than 20 µM throughout.
Regarding IPPTAGILA, in the experiment with HLA-B*51:01 (setting [11]), the Kd was 5.55 µM.
Turning to GEETIEERF, the Kd with HLA-B*40:01 (setting [16]) is 0.134 µM; in the experiment with HLA-B*18:01 (setting [16]), 3.38 µM; with HLA-B*44:02 (setting [16]), no less than 20 µM.
SSAAQRRGRI: the Kd with HLA-A*68:02 (setting [8]) is 0.051 µM.
For ETQGVTAEI, the dissociation constant Kd with HLA-A*26:01 [2] (setting [9]) was 0.282 µM; with HLA-A*68:02 (setting [9]), 0.00296 µM.
In the experiment with HLA-A*24:02 (setting [7]), ESGAVKYLE registered a half-maximal inhibitory concentration (IC50) of no less than 209 µM.
